EC50 and Ki data for 2 substances are collected here from PMC12396273.

Common to all, as to experiment: fluorescence polarisation
The target in experiment [1] is FITC-labelled HRK-BH3 peptide.
The target of experiment [2] is Human BCL-2 removing the C-terminal 32 residues, C-terminal 6×His-tag (human) (UniProt P10415).
Experiment [3] concerns the target Human BCL-XL removing the C-terminal 22 residues, C-terminal 6×His-tag (human) (UniProt Q07817).
Sequence of UniProt Q07817 (Q07817 1-211): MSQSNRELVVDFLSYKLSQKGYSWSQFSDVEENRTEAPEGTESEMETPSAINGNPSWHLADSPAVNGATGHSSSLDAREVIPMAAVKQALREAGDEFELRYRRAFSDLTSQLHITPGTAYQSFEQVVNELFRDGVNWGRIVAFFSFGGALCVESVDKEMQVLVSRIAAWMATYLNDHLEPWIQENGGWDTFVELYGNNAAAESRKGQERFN

Substance “Human BCL-2 removing the C-terminal 32 residues, C-terminal 6×His-tag (from UniProt P10415 1-207) (domain or fragment)” displayed an EC50 in experiment [1] of 30 nM.

As to wild-type HRK-BH3 peptide (HRK-WT), the Ki came out at 36 nM in experiment [2] and 1.8 nM in experiment [3].

By EC50 is commonly meant the concentration giving half of the maximal effect. A word on the Ki: it is the equilibrium dissociation constant of an inhibitor or competing ligand from its target. A high value points to lower affinity.
